Publication PMC6054379

Experiments:
[1] = molecular target: Staphylococcus aureus protein A (Staphylococcus aureus) (UniProt P38507); test: particle-based immunoassay read by flow cytometry; protein A covalently coupled (EDC/sulfo-NHS) to 6 μm (PAH/PAA)2 polyelectrolyte microcapsules; 10 μg purified BBM.1 in 1 mL PBS pH 8.2, 2 h; detected with GαM-AF488; dose-response also in PBS pH 7.2 and complete RPMI
[2] = molecular target: Staphylococcus aureus protein A (Staphylococcus aureus) (UniProt P38507); test: particle-based immunoassay read by flow cytometry; protein A covalently coupled (EDC/sulfo-NHS) to 2.35 μm carboxylated PS beads; 10 μg purified BBM.1 in 1 mL PBS pH 8.2, 2 h; detected with GαM-AF488

murine monoclonal antibody BBM.1
mean fluorescence intensity (MFI) [1]: 33.5
mean fluorescence intensity (MFI) [2]: 12.2
